Test results: PMC5895705, “Activation of the DnaK-ClpB Complex is Regulated by the Properties of the Bound Substrate” (Scientific Reports, 2018)

Molecular target: T1, ClpB, wild type (E. coli, UniProt P63284 1-857)
T1 construct: ClpB, E. coli, wild type; also called wt ClpB; wt-ClpB; source: E. coli BB4561, purified as previously described
Assay: co-sedimentation; G6PDH50 aggregates (1 μM) incubated 10 min at 30 °C in refolding buffer with DnaJ, 3.5 μM wt DnaK or variant, with or without 5 μM wt or mutant ClpB, 3 mM ATP with regenerating system, no GrpE; 122,000 x g, 40 min, 4 °C; pellets on SDS-PAGE or NuPAGE, densitometry, controls with native G6PDH subtracted
Conditions: both partners purified

B1: DnaK_(1–507) (domain or fragment)
chain: not shown
notes: DnaK, E. coli, residues 1-507 (lid deleted); also called Δlid; Δlid-DnaK
**Q.** Does B1 bind?
**A.** binds
